Measured values published in article PMC10153460.

Assays:
[1] = target: smc1p-T1117I cohesin (S. cerevisiae) (UniProt P32908)
[2] = target: cohesin with Smc1p-D1164E (S. cerevisiae) (UniProt P32908)
[3] = target: cohesin with Smc1p-T1117W (S. cerevisiae) (UniProt P32908)
cohesin with Smc1p-T1117W (S. cerevisiae), sequence (P32908 whole entry T1117W, chain 1 of 4): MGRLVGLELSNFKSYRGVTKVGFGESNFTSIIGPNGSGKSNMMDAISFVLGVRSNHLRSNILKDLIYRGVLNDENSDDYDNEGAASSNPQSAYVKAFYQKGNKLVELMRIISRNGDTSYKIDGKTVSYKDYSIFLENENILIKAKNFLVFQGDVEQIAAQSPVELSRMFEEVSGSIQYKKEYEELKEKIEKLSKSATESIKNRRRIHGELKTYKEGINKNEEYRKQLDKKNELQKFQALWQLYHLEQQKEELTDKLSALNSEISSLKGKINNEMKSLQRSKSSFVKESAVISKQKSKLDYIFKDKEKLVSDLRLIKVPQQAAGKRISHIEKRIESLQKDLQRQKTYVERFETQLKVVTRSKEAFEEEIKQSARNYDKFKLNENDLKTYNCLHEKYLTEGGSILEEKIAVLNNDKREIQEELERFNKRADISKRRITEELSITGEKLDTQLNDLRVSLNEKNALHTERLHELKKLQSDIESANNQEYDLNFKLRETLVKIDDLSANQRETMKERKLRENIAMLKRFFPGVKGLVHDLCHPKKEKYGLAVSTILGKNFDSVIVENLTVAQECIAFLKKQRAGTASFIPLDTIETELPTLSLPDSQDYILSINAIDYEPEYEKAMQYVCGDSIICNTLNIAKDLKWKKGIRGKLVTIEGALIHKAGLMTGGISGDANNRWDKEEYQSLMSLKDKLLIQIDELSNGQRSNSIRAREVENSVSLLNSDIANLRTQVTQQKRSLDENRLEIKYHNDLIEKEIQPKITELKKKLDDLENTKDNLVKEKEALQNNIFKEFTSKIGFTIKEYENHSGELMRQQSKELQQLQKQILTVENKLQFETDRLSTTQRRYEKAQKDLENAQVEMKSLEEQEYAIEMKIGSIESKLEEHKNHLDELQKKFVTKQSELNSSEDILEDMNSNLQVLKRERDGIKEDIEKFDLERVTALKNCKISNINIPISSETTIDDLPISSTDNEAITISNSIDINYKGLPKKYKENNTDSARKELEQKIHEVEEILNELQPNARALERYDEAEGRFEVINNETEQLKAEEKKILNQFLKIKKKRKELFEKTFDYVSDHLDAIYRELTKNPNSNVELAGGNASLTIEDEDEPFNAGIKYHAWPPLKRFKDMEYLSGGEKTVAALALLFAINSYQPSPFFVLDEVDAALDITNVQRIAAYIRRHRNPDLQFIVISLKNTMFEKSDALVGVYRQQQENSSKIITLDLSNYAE
cohesin with Smc1p-T1117W (S. cerevisiae), sequence (P47037 whole entry, chain 2 of 4, further chain): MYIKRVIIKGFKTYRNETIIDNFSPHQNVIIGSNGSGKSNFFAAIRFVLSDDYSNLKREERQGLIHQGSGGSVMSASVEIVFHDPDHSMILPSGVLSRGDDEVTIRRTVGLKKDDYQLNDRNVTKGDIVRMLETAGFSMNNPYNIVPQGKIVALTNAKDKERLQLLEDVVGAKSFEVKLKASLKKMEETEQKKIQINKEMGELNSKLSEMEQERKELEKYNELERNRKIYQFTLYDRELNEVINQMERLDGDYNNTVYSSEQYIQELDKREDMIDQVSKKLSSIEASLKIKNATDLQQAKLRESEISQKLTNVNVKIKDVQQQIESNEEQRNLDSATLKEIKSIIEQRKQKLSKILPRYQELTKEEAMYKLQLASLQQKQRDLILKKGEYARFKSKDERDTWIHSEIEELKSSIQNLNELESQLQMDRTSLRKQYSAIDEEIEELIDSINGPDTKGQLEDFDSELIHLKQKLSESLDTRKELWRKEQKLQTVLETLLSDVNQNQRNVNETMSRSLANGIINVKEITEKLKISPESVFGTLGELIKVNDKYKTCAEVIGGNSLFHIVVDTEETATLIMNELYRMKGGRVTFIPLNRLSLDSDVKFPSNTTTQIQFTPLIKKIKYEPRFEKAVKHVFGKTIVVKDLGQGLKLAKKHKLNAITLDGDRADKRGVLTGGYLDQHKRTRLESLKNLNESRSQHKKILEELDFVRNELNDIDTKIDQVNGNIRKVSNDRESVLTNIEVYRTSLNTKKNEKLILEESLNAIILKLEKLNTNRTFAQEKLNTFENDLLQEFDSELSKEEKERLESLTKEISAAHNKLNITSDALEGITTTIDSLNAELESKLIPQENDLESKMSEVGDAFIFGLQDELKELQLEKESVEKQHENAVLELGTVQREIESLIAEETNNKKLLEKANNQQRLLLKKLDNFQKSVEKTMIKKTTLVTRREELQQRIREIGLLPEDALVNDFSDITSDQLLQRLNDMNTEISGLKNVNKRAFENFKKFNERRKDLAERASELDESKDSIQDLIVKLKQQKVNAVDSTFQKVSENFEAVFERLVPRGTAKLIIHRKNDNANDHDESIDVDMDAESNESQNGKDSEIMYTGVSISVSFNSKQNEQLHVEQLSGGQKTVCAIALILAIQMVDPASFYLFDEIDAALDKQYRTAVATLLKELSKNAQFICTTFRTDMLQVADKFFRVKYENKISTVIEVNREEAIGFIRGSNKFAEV
cohesin with Smc1p-T1117W (S. cerevisiae), sequence (Q12158 whole entry, chain 3 of 4, further chain): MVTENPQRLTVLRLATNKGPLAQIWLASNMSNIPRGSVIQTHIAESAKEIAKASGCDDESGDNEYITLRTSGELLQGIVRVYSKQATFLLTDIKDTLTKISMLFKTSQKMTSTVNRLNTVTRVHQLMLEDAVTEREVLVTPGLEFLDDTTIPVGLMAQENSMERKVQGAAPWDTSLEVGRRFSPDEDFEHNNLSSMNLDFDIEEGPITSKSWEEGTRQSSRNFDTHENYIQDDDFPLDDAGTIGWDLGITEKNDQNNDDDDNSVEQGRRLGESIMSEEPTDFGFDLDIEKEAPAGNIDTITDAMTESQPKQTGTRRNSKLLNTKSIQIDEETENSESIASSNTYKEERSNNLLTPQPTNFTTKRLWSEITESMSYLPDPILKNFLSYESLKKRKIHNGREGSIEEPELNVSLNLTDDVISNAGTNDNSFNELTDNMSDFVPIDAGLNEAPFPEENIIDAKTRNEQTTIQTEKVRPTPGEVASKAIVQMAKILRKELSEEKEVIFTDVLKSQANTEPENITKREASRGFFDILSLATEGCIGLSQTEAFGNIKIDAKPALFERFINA
cohesin with Smc1p-T1117W (S. cerevisiae), sequence (P40541 whole entry, chain 4 of 4, further chain): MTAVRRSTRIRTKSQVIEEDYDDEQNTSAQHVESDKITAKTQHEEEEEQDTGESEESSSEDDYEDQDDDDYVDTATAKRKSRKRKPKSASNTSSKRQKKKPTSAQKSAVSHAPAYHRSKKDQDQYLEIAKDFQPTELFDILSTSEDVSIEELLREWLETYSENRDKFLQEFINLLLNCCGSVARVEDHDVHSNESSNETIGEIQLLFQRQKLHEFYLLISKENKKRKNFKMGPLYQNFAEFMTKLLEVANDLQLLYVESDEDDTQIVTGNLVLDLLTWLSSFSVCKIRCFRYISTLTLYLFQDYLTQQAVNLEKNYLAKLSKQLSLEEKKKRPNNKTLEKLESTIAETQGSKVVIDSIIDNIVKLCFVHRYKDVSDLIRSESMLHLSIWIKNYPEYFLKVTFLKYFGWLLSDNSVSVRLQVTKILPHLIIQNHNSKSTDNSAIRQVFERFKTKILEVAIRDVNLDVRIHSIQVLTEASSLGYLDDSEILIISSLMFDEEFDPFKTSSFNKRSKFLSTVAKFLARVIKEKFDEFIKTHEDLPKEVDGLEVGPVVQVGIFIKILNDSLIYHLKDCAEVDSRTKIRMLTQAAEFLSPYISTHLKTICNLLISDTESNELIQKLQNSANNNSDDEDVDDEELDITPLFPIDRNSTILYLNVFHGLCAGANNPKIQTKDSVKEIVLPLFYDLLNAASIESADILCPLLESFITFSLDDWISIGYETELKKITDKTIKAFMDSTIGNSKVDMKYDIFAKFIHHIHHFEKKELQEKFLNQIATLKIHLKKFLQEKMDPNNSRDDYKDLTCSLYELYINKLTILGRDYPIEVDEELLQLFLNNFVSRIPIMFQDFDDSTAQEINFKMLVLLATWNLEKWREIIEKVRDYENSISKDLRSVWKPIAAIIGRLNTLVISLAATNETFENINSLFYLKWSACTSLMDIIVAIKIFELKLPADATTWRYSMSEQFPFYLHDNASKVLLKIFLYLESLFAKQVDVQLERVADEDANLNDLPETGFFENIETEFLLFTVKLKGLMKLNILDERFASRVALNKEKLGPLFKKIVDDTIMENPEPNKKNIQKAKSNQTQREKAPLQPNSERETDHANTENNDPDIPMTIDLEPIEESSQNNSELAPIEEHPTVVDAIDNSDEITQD

- ATPase activity of purified cohesin in the presence of DNA with Scc2p, against wild-type cohesin with Scc2p; EnzChek phosphate assay (% greater than wild-type cohesin) [1]: 50
- ATPase activity of purified cohesin in the presence of DNA, induction by Scc2p against that of wild-type cohesin; EnzChek phosphate assay (fold less than wild type) [2]: 2
- ATPase activity of purified cohesin in the presence of DNA, induction by Scc2p against that of wild-type cohesin; EnzChek phosphate assay (fold less than wild type) [3]: 2
Substance: Scc2p/Scc4p (cohesin loader) (from UniProt Q04002 1-1493; P40090 1-624) (complex)
